Assay results as given in publication PMC4013091, “Stabilization and Augmentation of Circulating AIM in Mice by Synthesized IgM-Fc” (PLoS ONE, 2014).
“And” between values parts separate entries of the source, which are not always exact repeats. Identical values can stand only once.

Assays:
[1] = biological target: FL-hFc, human IgM-Fc with a FLAG tag on the N-terminus of the CH2 domain (human); assay: non-reducing SDS-PAGE and western blot; culture supernatant of HEK293T cells co-transfected with FL-hFc and IgJ-Myc; blotted with anti-FLAG and anti-Myc antibodies
[2] = biological target: FL-hFc, human IgM-Fc with a FLAG tag on the N-terminus of the CH2 domain (human); assay: non-reducing SDS-PAGE and western blot; culture supernatant of HEK293T cells transfected with pCAGGS-FL-hFc only, without IgJ
[3] = biological target: T1, human recombinant AIM (apoptosis inhibitor of macrophage) (human, UniProt O43866 20-347); assay: SPR; Biacore 3000, 25°C; human rAIM covalently immobilised (2800 RU) on a CM5 chip; IgM-Fc monomer injected in 10 mM HEPES pH 7.4, 150 mM NaCl, 3 mM EDTA, 0.05% Tween-20 at 20 µL/min; 1:1 Langmuir model; apparent affinity; conditions: both partners purified
T1 construct: also called human rAIM; rAIM; source: purified recombinant
T1 sequence (looked up): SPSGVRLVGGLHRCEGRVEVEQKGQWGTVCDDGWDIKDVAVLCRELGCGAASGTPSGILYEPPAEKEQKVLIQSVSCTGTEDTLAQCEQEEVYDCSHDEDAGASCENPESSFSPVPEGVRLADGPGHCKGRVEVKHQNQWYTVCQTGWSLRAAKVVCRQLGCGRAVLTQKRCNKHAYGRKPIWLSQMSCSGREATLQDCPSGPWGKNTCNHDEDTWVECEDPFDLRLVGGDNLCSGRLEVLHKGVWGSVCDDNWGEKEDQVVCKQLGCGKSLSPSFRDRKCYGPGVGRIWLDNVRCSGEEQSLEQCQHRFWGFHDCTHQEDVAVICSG

[4] = biological target: human IgM-Fc pentamer (FL-hFc) combined with IgJ-Myc (human) (UniProt P01591)
[5] = biological target: human IgM-Fc pentamer (FL-hFc) combined with IgJ-Myc (human) (UniProt P01591); assay: sequential immunoaffinity co-purification; supernatant of co-cultured HEK 293T cells (hAIM-HA cells with FL-hFc and IgJ-Myc cells); anti-hAIM monoclonal antibody column, then anti-FLAG column; fractions blotted with anti-HA and anti-FLAG
[6] = biological target: human IgM-Fc pentamer (FL-hFc) combined with IgJ-Myc (human) (UniProt P01591); remark: listed apart in the source

human IgM-Fc pentamer (FL-hFc) combined with IgJ-Myc (human), sequence (P01591 whole entry): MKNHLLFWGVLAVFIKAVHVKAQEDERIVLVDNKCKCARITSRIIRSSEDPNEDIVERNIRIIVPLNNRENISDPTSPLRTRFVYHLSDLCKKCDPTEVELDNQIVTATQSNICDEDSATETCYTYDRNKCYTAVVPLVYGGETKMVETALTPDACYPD

## FL-hFc, human IgM-Fc with a FLAG tag on the N-terminus of the CH2 domain (domain or fragment)
[1]
  stoichiometry N: 5
[2]
  stoichiometry N: 5 and 6

B1: monomeric human IgM-Fc (CH2-CH3-CH4) with a C-terminal Myc tag (domain or fragment)
chain: IAELPPKVSVFVPPRDGFFGNPRKSKLICQATGFSPRQIQVSWLREGKQVGSGVTTDQVQAEAKESGPTTYKVTSTLTIKESDWLGQSMFTCRVDHRGLTFQQNASSMCVPDQDTAIRVFAIPPSFASIFLTKSTKLTCLVTDLTTYDSVTISWTRQNGEAVKTHTNISESHPNATFSAVGEASICEDDWNSGERFTCTVTHTDLPSPLKQTISRPKGVALHRPDVYLLPPAREQLNLRESATITCLVTGFSPADVFVQWMQRGQPLSPEKYVTSAPMPEPQAPGRYFAHSILTVSEEEWNTGETYTCVVAHEALPNRVTERTVDKSTGKPTLYNVSLVMSDTAGTCY
modifications: Disulfide-linked dimer of the mu Fc chain (~100-110 kDa), N-glycosylated (HEK293T). C-terminal Myc tag, which blocks pentamer formation, omitted. Limits not printed: CH2 start by domain convention. …
[3]
  Kd: 153 nM
  koff: 0.00315 s⁻¹
  kon: 20500 M⁻¹ s⁻¹

B2: endogenous mouse AIM in serum (natural protein)
chain: ESPTKVQLVGGAHRCEGRVEVEHNGQWGTVCDDGWDRRDVAVVCRELNCGAVIQTPRGASYQPPASEQRVLIQGVDCNGTEDTLAQCELNYDVFDCSHEEDAGAQCENPDSDLLFIPEDVRLVDGPGHCQGRVEVLHQSQWSTVCKAGWNLQVSKVVCRQLGCGRALLTYGSCNKNTQGKGPIWMGKMSCSGQEANLRSCLLSRLENNCTHGEDTWMECEDPFELKLVGGDTPCSGRLEVLHKGSWGSVCDDNWGEKEDQVVCKQLGCGKSLHPSPKTRKIYGPGAGRIWLDDVNCSGKEQSLEFCRHRLWGYHDCTHKEDVEVICTDFDV
[4]
  circulating mouse AIM level in Δsμ mice 24 h after i.v. injection of 1 mg FL-hFc, as percent of that in the wild-type mouse (immunoblot of serum): 35%

B3: HA-tagged human AIM (natural protein)
chain: T1 sequence (looked up)
[5]
  mass of hAIM in 100 µg of the purified hFc-AIM complex: 20 µg
[6]
  half-life of hAIM in the blood of wild-type mice after i.v. injection of 100 µg hFc-AIM complex (less than 2 h for hAIM alone): 12 h
